EP4635976A1 (Medigene Immunotherapies GmbH, dated 2025)

Legend:
Assay in all cases: cell-based or functional assay
[1] = biological target: mismatched peptide #7 …
[2] = biological target: mismatched peptide #8 …
[3] = biological target: mismatched peptide #9 …
[4] = biological target: mismatched peptide #13 …
[5] = biological target: mismatched peptide #15 …
[6] = biological target: mismatched peptide #24 …
[7] = biological target: mismatched peptide #31 …
[8] = biological target: mismatched peptide #41 …
[9] = biological target: mismatched peptide #45 …
[10] = biological target: mismatched peptide #62 …
[11] = biological target: mismatched peptide #76 …
[12] = biological target: mismatched peptide #79 …
[13] = biological target: mismatched peptide #116 …
[14] = biological target: mismatched peptide #160 …
[15] = biological target: mismatched peptide #221 …
[16] = biological target: mismatched peptide #228 …
[17] = biological target: mismatched peptide #236 …
[18] = biological target: mismatched peptide #239 …
[19] = biological target: mismatched peptide #240 …
[20] = biological target: mismatched peptide #243 …
[21] = biological target: mismatched peptide #244 …
[22] = biological target: mismatched peptide #246 …
[23] = biological target: mismatched peptide #247 …
[24] = biological target: mismatched peptide #257 …
[25] = biological target: mismatched peptide #265 …
[26] = biological target: mismatched peptide #278 …
[27] = biological target: mismatched peptide #314 …
[28] = biological target: mismatched peptide #323 …
[29] = biological target: mismatched peptide #324 …

B1: NY-ESO specific TCR (T11.8-10-17), wild type (TCR)
TCR alpha: QKEVEQNSGPLSVPEGAIASLNCTYSDRGSQSFFWYRQYSGKSPELIMFIYSNGDKEDGRFTAQLNKASQYVSLLIRDSQPSDSATYLCAADDKIIFGKGTRLHILPNIQNPDPAVYQLRDSKSSDKSVCLFTDFDSQTNVSQSKDSDVYITDKTVLDMRSMDFKSNSAVAWSNKSDFACANAFNNSIIPEDTFFPSSDVPCDVKLVEKSFETDTNLNFQNLSVIGFRILLLKVAGFNLLMTLRLWSS
TCR beta: DAGVIQSPRHEVTEMGQEVTLRCKPISGHDYLFWYRQTMMRGLELLIYFNNNVPIDDSGMPEDRFSAKMPNASFSTLKIQPSEPRDSAVYFCASSRGGSGYTFGSGTRLTVVEDLNKVFPPEVAVFEPSKAEIAHTQKATLVCLATGFFPDHVELSWWVNGKEVHSGVSTDPQPLKEQPALNDSRYCLSSRLRVSATFWQNPRNHFRCQVQFYGLSENDEWTQDRAKPVTQIVSAEAWGRADCGITSASYHQGVLSATILYEILLGKATLYAVLVSALVLMAMVKRKDF
[1]
  IFN-γ release (IFNg-ELISA), donor MIT 045: 24 pg/mL
[2]
  IFN-γ release (IFNg-ELISA), donor MIT 045: 24.7 pg/mL
[3]
  IFN-γ release (IFNg-ELISA), donor MIT 045: 26.5 pg/mL
[4]
  IFN-γ release (IFNg-ELISA), donor MIT 045: 20.8 pg/mL
[5]
  IFN-γ release (IFNg-ELISA), donor MIT038: 282 pg/mL
  IFN-γ release (IFNg-ELISA), donor MIT 045: 47.1 pg/mL
[6]
  IFN-γ release (IFNg-ELISA), donor MIT 045: 24.3 pg/mL
[7]
  IFN-γ release (IFNg-ELISA), donor MIT038: 2130 pg/mL
  IFN-γ release (IFNg-ELISA), donor MIT 045: 887 pg/mL
[8]
  IFN-γ release (IFNg-ELISA), donor MIT038: 298 pg/mL
  IFN-γ release (IFNg-ELISA), donor MIT 045: 55.6 pg/mL
[9]
  IFN-γ release (IFNg-ELISA), donor MIT038: 1500 pg/mL
  IFN-γ release (IFNg-ELISA), donor MIT 045: 177 pg/mL
[10]
  IFN-γ release (IFNg-ELISA), donor MIT038: 819 pg/mL
  IFN-γ release (IFNg-ELISA), donor MIT 045: 88.3 pg/mL
[11]
  IFN-γ release (IFNg-ELISA), donor MIT038: 769 pg/mL
  IFN-γ release (IFNg-ELISA), donor MIT 045: 150 pg/mL
[12]
  IFN-γ release (IFNg-ELISA), donor MIT038: 292 pg/mL
  IFN-γ release (IFNg-ELISA), donor MIT 045: 40.3 pg/mL
[13]
  IFN-γ release (IFNg-ELISA), donor MIT 045: 32.4 pg/mL
[14]
  IFN-γ release (IFNg-ELISA), donor MIT038: 3620 pg/mL
  IFN-γ release (IFNg-ELISA), donor MIT 045: 1290 pg/mL
[15]
  IFN-γ release (IFNg-ELISA), donor MIT038: 789 pg/mL
  IFN-γ release (IFNg-ELISA), donor MIT 045: 101 pg/mL
[16]
  IFN-γ release (IFNg-ELISA), donor MIT038: 234 pg/mL
  IFN-γ release (IFNg-ELISA), donor MIT 045: 35.4 pg/mL
[17]
  IFN-γ release (IFNg-ELISA), donor MIT038: 256 pg/mL
  IFN-γ release (IFNg-ELISA), donor MIT 045: 32.3 pg/mL
[18]
  IFN-γ release (IFNg-ELISA), donor MIT038: 229 pg/mL
  IFN-γ release (IFNg-ELISA), donor MIT 045: 32.1 pg/mL
[19]
  IFN-γ release (IFNg-ELISA), donor MIT038: 237 pg/mL
  IFN-γ release (IFNg-ELISA), donor MIT 045: 23.4 pg/mL
[20]
  IFN-γ release (IFNg-ELISA), donor MIT038: 380 pg/mL
  IFN-γ release (IFNg-ELISA), donor MIT 045: 47.2 pg/mL
[21]
  IFN-γ release (IFNg-ELISA), donor MIT038: 441 pg/mL
  IFN-γ release (IFNg-ELISA), donor MIT 045: 45.4 pg/mL
[22]
  IFN-γ release (IFNg-ELISA), donor MIT038: 321 pg/mL
  IFN-γ release (IFNg-ELISA), donor MIT 045: 40.9 pg/mL
[23]
  IFN-γ release (IFNg-ELISA), donor MIT038: 681 pg/mL
  IFN-γ release (IFNg-ELISA), donor MIT 045: 80.5 pg/mL
[24]
  IFN-γ release (IFNg-ELISA), donor MIT038: 383 pg/mL
  IFN-γ release (IFNg-ELISA), donor MIT 045: 57.9 pg/mL
[25]
  IFN-γ release (IFNg-ELISA), donor MIT038: 366 pg/mL
  IFN-γ release (IFNg-ELISA), donor MIT 045: 43.2 pg/mL
[26]
  IFN-γ release (IFNg-ELISA), donor MIT038: 464 pg/mL
  IFN-γ release (IFNg-ELISA), donor MIT 045: 50.8 pg/mL
[27]
  IFN-γ release (IFNg-ELISA), donor MIT 045: 26.7 pg/mL
[28]
  IFN-γ release (IFNg-ELISA), donor MIT038: 3700 pg/mL
  IFN-γ release (IFNg-ELISA), donor MIT 045: 658 pg/mL
[29]
  IFN-γ release (IFNg-ELISA), donor MIT038: 432 pg/mL
